Assay results: article PMC2777681

Tests used:
[1] = molecular target: full-length purified recombinant EWS-FLI1; experiment: SPR
[2] = molecular target: full-length purified recombinant EWS-FLI1; experiment: co-IP

response units at 32 μM E9R [1]: 13 R.U.
response units at 32 μM E9R with 10 μM YK-4-279 [1]: 5 R.U.
response units at 64 μM E9R [1]: 17 R.U.
response units at 64 μM E9R with 10 μM YK-4-279 [1]: 7 R.U.
percent of the GST-RHA(647-1075)/EWS-FLI1 association left with 0.1 μM E9R [2]: 50%
Binder: PPPLDAVIEA [E9R peptide, Q08211 823-832]
